Source: US20260356970 (published 2026)

T1: EMR2 (human, UniProt Q9UHX3)
T1 chain: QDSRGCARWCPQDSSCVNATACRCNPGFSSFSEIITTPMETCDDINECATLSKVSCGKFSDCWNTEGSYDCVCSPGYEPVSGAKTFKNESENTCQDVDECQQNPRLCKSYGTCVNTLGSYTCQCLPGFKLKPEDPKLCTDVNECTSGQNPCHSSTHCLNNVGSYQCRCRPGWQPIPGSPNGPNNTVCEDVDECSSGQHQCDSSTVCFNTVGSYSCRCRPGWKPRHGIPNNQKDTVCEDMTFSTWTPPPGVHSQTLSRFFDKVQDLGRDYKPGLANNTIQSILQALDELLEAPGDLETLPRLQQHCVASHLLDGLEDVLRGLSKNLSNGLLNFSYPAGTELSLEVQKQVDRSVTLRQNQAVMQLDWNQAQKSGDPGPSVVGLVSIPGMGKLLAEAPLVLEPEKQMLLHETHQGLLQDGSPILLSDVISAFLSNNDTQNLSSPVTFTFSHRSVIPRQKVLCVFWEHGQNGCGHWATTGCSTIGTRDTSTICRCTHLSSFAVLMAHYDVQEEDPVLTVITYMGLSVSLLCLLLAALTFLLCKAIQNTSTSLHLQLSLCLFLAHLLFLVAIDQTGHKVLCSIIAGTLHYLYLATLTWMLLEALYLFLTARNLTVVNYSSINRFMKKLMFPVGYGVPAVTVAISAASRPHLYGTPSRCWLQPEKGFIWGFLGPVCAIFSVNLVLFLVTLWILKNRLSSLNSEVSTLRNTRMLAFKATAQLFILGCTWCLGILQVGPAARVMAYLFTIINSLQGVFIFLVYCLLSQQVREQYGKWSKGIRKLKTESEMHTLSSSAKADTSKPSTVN


Molecular target: T1, EMR2
Assay: ELISA

EC50 [nM]	Binder
< 1	EMR2-2-scFv (antibody, V domains shown) VH: QVQPVESGGGLVQPGGSLRLSCAASGFTFSSYEMNWVRQAPGKGLEWVSAISGGGGSTYYADSVKGRFTISRDNSKNTLYLQMNSLRAEDTAVYYCAKSGRGWAAAGRWGQGTLVTVSS VL: not shown
< 1	EMR2-1-scFv (antibody, V domains shown) VH: QVQLVQSGAEVKKPGASVKVSCKASGYTFTSYGISWVRQAPGQGLEWMGWISAYNGNTNYAQKLQGRVTMTTDTSTSTAYMELRSLRSDDTAVYYCARGYAFDIWGQGTMVTVSS VL: SYELTQPLSVSVALGQTARITCGGNNIGSKNVHWYQQKPGQAPVLVIYRDSNRPSGIPERFSGSNSGNTATLTINRAQAGDEADYYCQVWDSSTVVFGGGTELTVL
< 1	EMR2-3-VH (designed binder) QVQLVQSGGGLVQPGGSLRLSCAASDFSFDSYEMSWVRQAPGKGLEWVSSISASGGRTFYADSVKGRFTISRDNSKNTLYLQMNTLRAEDTALYYCARHPGIMGQGTLVTVSS
